{
  "source": "paper PMC10947486",
  "data": [
    {"substrate": "O=C(O)CCC(=O)C(=O)O", "experiment": "purified protein", "conditions": "Fe(II) active site Fe(II)", "units": {"Km": "µM", "kcat": "s⁻¹", "kcat/Km": "M⁻¹ s⁻¹"}, "values": [
      {"protein": "Aspartate/asparagine-β-hydroxylase (AspH) (Homo sapiens; H679A) (protein) RKTDDPEQKAKVKKKKPKLLNKFDKTIKAELDAAEKLRKRGKIEEAVNAFKELVRKYPQSPRARYGKAQCEDDLAEKRRSNEVLRGAIETYQEVASLPDVPADLLKLSLKRRSDRQQFLGHMRGSLLTLQRLVQLFPNDTSLKNDLGVGYLLIGDNDNAKKVYEEVLSVTPNDGFAKVHYGFILKAQNKIAESIPYLKEGIESGDPGTDDGRFYFHLGDAMQRVGNKEAYKWYELGHKRGHFASVWQRSLYNVNGLKAQPWWTPKETGYTELVKSLERNWKLIRDEGLAVMDKAKGLFLPEDENLREKGDWSQFTLWQQGRRNENACKGAPKTCTLLEKFPETTGCRRGQIKYSIMHPGTHVWPATGPTNCRLRMHLGLVIPKEGCKIRCANETKTWEEGKVLIFDDSFEHEVWQDASSFRLIFIVDVWHPELTPQQRRSLPAI", "Km": "109 ± 20", "kcat": 0.18, "kcat/Km": 1700},
      {"protein": "Aspartate/asparagine-β-hydroxylase (AspH) (Homo sapiens) (protein) RKTDDPEQKAKVKKKKPKLLNKFDKTIKAELDAAEKLRKRGKIEEAVNAFKELVRKYPQSPRARYGKAQCEDDLAEKRRSNEVLRGAIETYQEVASLPDVPADLLKLSLKRRSDRQQFLGHMRGSLLTLQRLVQLFPNDTSLKNDLGVGYLLIGDNDNAKKVYEEVLSVTPNDGFAKVHYGFILKAQNKIAESIPYLKEGIESGDPGTDDGRFYFHLGDAMQRVGNKEAYKWYELGHKRGHFASVWQRSLYNVNGLKAQPWWTPKETGYTELVKSLERNWKLIRDEGLAVMDKAKGLFLPEDENLREKGDWSQFTLWQQGRRNENACKGAPKTCTLLEKFPETTGCRRGQIKYSIMHPGTHVWPHTGPTNCRLRMHLGLVIPKEGCKIRCANETKTWEEGKVLIFDDSFEHEVWQDASSFRLIFIVDVWHPELTPQQRRSLPAI", "Km": "1.1 ± 0.4", "kcat": 0.31, "kcat/Km": 282000},
      {"protein": "Aspartate/asparagine-β-hydroxylase (AspH) (Homo sapiens; H725A) (protein) RKTDDPEQKAKVKKKKPKLLNKFDKTIKAELDAAEKLRKRGKIEEAVNAFKELVRKYPQSPRARYGKAQCEDDLAEKRRSNEVLRGAIETYQEVASLPDVPADLLKLSLKRRSDRQQFLGHMRGSLLTLQRLVQLFPNDTSLKNDLGVGYLLIGDNDNAKKVYEEVLSVTPNDGFAKVHYGFILKAQNKIAESIPYLKEGIESGDPGTDDGRFYFHLGDAMQRVGNKEAYKWYELGHKRGHFASVWQRSLYNVNGLKAQPWWTPKETGYTELVKSLERNWKLIRDEGLAVMDKAKGLFLPEDENLREKGDWSQFTLWQQGRRNENACKGAPKTCTLLEKFPETTGCRRGQIKYSIMHPGTHVWPHTGPTNCRLRMHLGLVIPKEGCKIRCANETKTWEEGKVLIFDDSFEAEVWQDASSFRLIFIVDVWHPELTPQQRRSLPAI", "Km": "211 ± 65", "kcat": 0.08, "kcat/Km": 380}
    ]}
  ]
}
